Assay results from the nanobody polyreactivity screen of Harvey et al. (2022).

Experiment: yeast display, Sf9 membrane polyspecificity reagent, FACS + sequencing; frameworks hold sequencing errors
Outline: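 Synthetic nanobody libraries on Saccharomyces cerevisiae BJ5465 were galactose-induced for 36–48 hours, stained 1 hour at 4 °C with 10% biotinylated, detergent-solubilized Sf9 membrane reagent and enriched on streptavidin microbeads. FACS then separated cells into low and high (top ~1%) gates by anti-HA (expression) and streptavidin (reagent binding) fluorescence. Genes were colony-PCR amplified, MiSeq 2 × 250 sequenced and CDR-length filtered. A clone's polyreactivity label is that of its gate of origin.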

Row | Sequence | polyreactivity (PSR sort gate)
1 | QVQLVESGGGFVQAGGSLRLSCAASGSIFVTNAMGWYRQAPGKDRELVAAISVSGGSTYYADSVKGRFTISRDNAKNTVYLQMNSLKPEDTAVYYCNTVRSPPGHDYWGLGTQVTVSS | low polyreactivity
2 | QVQLVESGGGLDQAGGSLRLSCAASGRTFFDYAMGWYRQATGKERELVAAINWSGGRTYYADSVKGRFTISRDNAKNTVYLQMISLKPEDTAVYYCAAIYGSLYPTGQTRRDYYSWGQGTKVTVSS | low polyreactivity
3 | QVQHVESGGGLVQAGGSLRLSSAASGRTFGIYAMGWSRQAPGKERELVATISWRGGSTYYADSLKGRFTISRDNSKNTVYLQMNSLKPEDTAVDYCAAGYYPYWGQGTQVTVSS | low polyreactivity
4 | QVQLVESGGGLVQAGGSLRLSCAASGSIFLPNAMGWYRQAPGKERELVARITSTGSTNYADSVKGRFTISRDNAKNTVYLQMNSLKPEDTAVYYCAADYYPFYVKREQAYPDIPYDSWGQGTQVTVSS | low polyreactivity
5 | QVQLVESGGGLVQAGGSLRLSCAASGRIFKSYAMGWYRQAPGKERELVAAISRGGRTNYADSVKGRFTISRDNAKNTVYLQMNSLKPEVTAVYYCAARFVVQGHSSPYDYWGQGTQVTVSS | high polyreactivity
6 | QVQLVESGGGLVQAGGSLRLSCAASGSTLYYNAMGWFRQAPGKERELVARISRSGGSTYADSVKGRFTISRDNAKNTVYLQMNMLKRDDTAVYYCNADAYGTPEFTSYAVRYDYWGQGTQVTVSS | low polyreactivity
7 | QVQLVESGGGLVQAGCSLRLSCAASGRIFTTYAMGWYRQAPGKERELVASIDSRGDSTYADSVKGRFTISRDNAKNTVYLQMNSLKPEDTAVYYCAADSWYTWFDSWGQGTQVTVSS | low polyreactivity
8 | QVQLVESGGGLVQARGSLRLSCAASGLIFKYNVMGWYRQAPGTERELVAAITWGGTRTYYADSVKGRFTISRDNAKNTVYLQMNSLKPEDTAVYYCARSHWTWLLIYIGAQDYDYWGQGTQVTVSS | low polyreactivity
9 | QVQLVESGVGLVQAGGSLSLSCAATGRIFNSYMGWYRQAPGKERELDAAISWSSGTSTYYADSVKGRFTISRDNAKNTVYLQMNSLKPEDTAVYYCNADDYYGPYPEEYDYWGQGTQVTVSS | low polyreactivity
10 | QVQLVESGGGLVQAGGSLRLSCAASGLTFSSYAMGWYRQAPGKERELVAVISRTGGSTYYADSVKGRFTISRDNAKNTVYLQMNSLKPEDTAVYYCAARSYNGWRYDSWGQGTQVTVSS | high polyreactivity
11 | QVPLVESGGGLVQAGGSLRLSCAASGRIFYFNDMGWYRQAPGKERELVAAISRSGGSTYYADSVKGRFTISRDNAKNTVYLQMNSLKPEDTAVYYCAAGRDTWPSTYYYWGQGTQVTVSS | low polyreactivity
12 | QVQLVESGGGLVQAGGSLRLSCAASGRTFDVYTMGWYRHAAGKERELVAAITARGARTYYADSVKGRFTISRDNAKNTVYLQMNSLKPEDTAVYYCAAKSYRHSLYDYWGQGTQVTVSS | high polyreactivity
13 | QEQLQESGGGLVQAGGDLRLSCAESGNIFRDYIMGWYRQAPGKEREFVAGIDRGANTNYADSVKGRFTISRDNAKNTVYLQMNSLKPEDTAVYYCAVHTAIVPDFIYWGQGTQVTVSS | low polyreactivity
14 | QVQLVESGGGLVQAGGSLRLSCAASGYIFRYNEMGWYRQAPGKERALVAAIRATGGSTYYADSVKGRFTISRDNAKNTVYLQMNSLKPEDTAVYYCNAGGQGRTYRYYYWGQGTQVTVSS | high polyreactivity
15 | QVQLVESGGGLVQAGGSLRLSCAASGFTFWDYAMGWYRQAPGKERELVATISVGGGSTYYADSVKGRFTISRDNSKNSVYLQMNSLKPEDTAVYYCAADRSYYLAGYDYWGQGTQVPVSS | low polyreactivity
16 | QVQHVESGGGLDQAGGSLRLSCAASGFIFYDYMGWDRQAPGKQRELVAVISYSGSSTNYAYSVKGRFTITRDNAKMTVYLQINSLKPEDTAVYYWAARIVNGWDYDFWGQGSQVTVSS | low polyreactivity
17 | QVQRVESGGGLVQAGGSLRLSCAASGRIFLTNARGWYRQAPGKERELVPAITSGGSTYYADSVKGRFTISRDNAKNTVYLQMNSLKPEDTAVYYCNDDTDRYWPYEYDYWGQGTQVTVSS | low polyreactivity
